Key:
[1] = molecular target: T1, full length (FL) human gp130 over-expressed on HEK293/Stat3-luc/gp130-2X Sort cells (human, UniProt P40189 23-918); assay: FACS, 10 nM mAb, 293/Stat3-luc/GP130 2X sort cells
T1 construct: whole, on cells
T1 sequence (looked up): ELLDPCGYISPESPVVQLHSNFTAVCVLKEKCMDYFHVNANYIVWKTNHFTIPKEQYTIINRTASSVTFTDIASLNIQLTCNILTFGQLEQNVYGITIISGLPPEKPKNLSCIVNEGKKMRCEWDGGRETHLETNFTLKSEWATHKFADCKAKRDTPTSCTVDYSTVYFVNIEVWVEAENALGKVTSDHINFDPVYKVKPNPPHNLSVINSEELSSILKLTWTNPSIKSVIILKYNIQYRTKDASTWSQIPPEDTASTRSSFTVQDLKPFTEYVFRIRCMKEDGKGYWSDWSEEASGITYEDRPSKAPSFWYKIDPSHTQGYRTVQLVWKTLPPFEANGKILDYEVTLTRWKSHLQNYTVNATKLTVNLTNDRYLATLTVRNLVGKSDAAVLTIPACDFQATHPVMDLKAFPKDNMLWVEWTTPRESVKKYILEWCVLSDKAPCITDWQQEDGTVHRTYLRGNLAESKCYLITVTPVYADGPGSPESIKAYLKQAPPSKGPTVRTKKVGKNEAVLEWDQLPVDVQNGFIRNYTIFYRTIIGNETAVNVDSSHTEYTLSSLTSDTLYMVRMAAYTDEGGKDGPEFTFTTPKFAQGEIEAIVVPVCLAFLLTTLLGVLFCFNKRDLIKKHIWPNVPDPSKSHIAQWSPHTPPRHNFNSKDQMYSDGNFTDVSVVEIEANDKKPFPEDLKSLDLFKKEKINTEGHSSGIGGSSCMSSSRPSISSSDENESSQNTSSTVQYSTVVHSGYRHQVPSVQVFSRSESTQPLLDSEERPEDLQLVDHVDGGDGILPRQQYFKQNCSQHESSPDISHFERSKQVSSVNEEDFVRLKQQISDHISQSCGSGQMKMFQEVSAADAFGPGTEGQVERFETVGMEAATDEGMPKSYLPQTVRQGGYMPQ
Description: (§1) In order to assess cell binding by anti-GP130 antibodies of the invention two cell lines were generated. One cell line generated was HEK293 cells stably over-expressing full length (FL) human gp130 (amino acids 1-918 of accession # P40189 with leucine at position 2 changed to valine, a natural variant) along with a luciferase reporter (Stat3-luciferase, Stat3-luc, SA Bioscience, #CLS-6028L). The cells were sorted twice using flow cytometry for high expression of gp130. It is known hereafter as HEK293/Stat3-luc/gp130-2X Sort. IMR-32 cells (human Neuroblastoma, ATCC), were also evaluated for cell binding as these cells express gp130 endogenously and were used for bioassays. The cells used for binding were generated to stably express a luciferase reporter (Stat3-luciferase, Stat3-luc, SA Bioscience, #CLS-6028L), and are referred to hereafter as IMR-32/STAT3-Luc cells.
(§2) For the FACS analysis, 10 nM of the antibodies were used to stain 0.5×10^6 cells/well of each cell type at 4° C. in PBS (without calcium and magnesium) containing 2% FBS for 30 minutes. IMR-32/STAT3-luc cells were incubated with 1 mg/mL mouse IgG for 30 minutes at 4° C. to block Fc receptors prior to adding the antibodies. To test whether the anti-gp130 antibody binding is specific for gp130 on the IMR-32 cells, antibodies were added to IMR-32/Stat3-luc cells with or without being pre-bound to 1000 nM of recombinant protein of the ecto-domain of human gp130 fused to myc-myc-his tag (hgp130.mmh) for 30 minutes at 25° C. […] Cells were fixed using BD CytoFix™ (Becton Dickinson, #554655) and analyzed on an IQue® (Intellicyt®) Flow Cytometer. Unstained and secondary antibody alone controls were also tested for all cell lines. The results were analyzed using ForeCyt® (IntelliCyt®) software to determine the geometric means of fluorescence for viable cells.

[2] = molecular target: T2, human gp130 expressed endogenously on IMR-32/Stat3-luc cells (human, UniProt P40189 23-918); assay: FACS, 10 nM mAb, IMR-32/Stat3-luc cells, no hGP130.mmh
T2 construct: whole, on cells
T2 sequence (looked up): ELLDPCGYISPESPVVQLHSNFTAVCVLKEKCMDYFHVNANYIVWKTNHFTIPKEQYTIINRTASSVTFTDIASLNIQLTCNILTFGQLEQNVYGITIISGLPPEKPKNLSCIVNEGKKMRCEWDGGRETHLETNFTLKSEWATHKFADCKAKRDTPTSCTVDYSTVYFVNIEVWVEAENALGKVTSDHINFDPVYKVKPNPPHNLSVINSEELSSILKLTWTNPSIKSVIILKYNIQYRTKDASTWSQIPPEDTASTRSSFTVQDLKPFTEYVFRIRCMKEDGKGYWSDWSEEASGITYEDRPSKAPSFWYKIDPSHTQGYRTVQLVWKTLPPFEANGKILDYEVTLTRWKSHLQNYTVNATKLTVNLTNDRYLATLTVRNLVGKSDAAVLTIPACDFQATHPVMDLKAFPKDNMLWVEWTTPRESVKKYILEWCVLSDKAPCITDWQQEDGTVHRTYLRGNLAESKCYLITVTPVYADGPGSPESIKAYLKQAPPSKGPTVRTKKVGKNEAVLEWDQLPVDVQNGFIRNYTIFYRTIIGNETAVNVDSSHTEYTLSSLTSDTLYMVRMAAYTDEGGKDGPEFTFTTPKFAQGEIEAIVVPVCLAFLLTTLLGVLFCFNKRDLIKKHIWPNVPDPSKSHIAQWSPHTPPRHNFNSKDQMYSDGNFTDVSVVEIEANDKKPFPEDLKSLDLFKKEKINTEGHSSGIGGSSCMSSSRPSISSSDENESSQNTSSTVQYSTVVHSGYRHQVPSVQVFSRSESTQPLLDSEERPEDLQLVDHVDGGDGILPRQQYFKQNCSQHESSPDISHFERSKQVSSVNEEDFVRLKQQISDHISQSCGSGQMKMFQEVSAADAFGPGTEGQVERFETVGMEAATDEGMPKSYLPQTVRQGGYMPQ
Description: as §1, §2

[3] = molecular target: T2, human gp130 expressed endogenously on …; assay: FACS, 10 nM mAb, IMR-32/Stat3-luc cells, competitor 1 uM hGP130.mmh
Description: as §1, §2

[4] = molecular target: T3, human gp130 extracellular domain with the Fc portion of mouse IgG2a at the C-terminus (human); assay: blocking ELISA, 2.5 nM hGP130-mFc to plate-bound CNTFR/CNTF complex; * below the lower limit of quantitation of 1.25E-09 M
T3 construct: Dimeric; also called hGP130-mFc; dimeric GP130 protein
T3 chain: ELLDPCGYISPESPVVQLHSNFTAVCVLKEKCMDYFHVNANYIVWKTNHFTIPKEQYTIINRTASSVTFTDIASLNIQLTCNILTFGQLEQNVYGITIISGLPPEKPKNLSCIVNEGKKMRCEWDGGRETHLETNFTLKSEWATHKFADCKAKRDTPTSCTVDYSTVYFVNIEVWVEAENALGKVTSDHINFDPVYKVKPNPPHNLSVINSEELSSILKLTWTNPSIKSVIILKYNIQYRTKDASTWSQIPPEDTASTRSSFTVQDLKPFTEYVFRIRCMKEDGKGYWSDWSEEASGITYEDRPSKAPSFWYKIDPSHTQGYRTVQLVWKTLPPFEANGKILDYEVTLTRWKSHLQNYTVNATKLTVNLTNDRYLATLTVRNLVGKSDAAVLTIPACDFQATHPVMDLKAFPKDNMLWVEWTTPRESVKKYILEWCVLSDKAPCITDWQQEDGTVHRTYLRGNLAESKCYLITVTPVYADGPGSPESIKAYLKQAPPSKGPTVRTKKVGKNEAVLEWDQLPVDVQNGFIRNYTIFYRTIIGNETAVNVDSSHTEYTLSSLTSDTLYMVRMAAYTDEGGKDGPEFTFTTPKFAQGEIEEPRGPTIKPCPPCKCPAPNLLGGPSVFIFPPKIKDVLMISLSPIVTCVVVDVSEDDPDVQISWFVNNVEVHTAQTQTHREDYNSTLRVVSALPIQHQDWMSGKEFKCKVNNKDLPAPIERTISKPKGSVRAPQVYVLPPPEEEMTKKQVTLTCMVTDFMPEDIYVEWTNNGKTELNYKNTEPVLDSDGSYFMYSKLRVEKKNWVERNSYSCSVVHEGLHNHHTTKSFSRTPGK
Protocol: The experiment was carried out using the following procedure. Human CNTFRα was coated at a concentration of […] in HBSS on a 96-well microtiter plate overnight at 4° C. […] Human CNTF at a concentration of 1 μg/ml in HBSS was added to the plate bound CNTFRα for 1 hour at room temperature. In separate dilution plates, a constant amount of 2.5 nM of human GP130-mFc protein was titrated with antibodies ranging from 3.4 pM to 200 nM in serial dilution and with no antibody present. These solutions were incubated for 1 hour at room temperature (RT) and subsequently transferred to the microtiter plates with CNTFRα/CNTF complex without washing. The plates were incubated for 2 hours at RT, washed with PBST buffer, and plate-bound hGP130-mFc was detected with an anti-mFc polyclonal antibody conjugated with horseradish peroxidase (HRP) (Jackson ImmunoResearch Inc). Samples were developed with a TMB solution (BD Biosciences, substrate A and B mixed at 1:1 ratio as per manufacturer's instructions) to produce a colorimetric reaction and then neutralized with 1M sulfuric acid before measuring absorbance at 450 nm on a Victor ×5 plate reader.

MFI - Normalized to Unstained Control [1]: 159 | MFI - Normalized to Unstained Control [2]: 23 | MFI - Normalized to Unstained Control [3]: 8 | IC50 [4]: < 1.25 nM
B1: MAb16666 (antibody, V domains shown)
VH: EVQLVESGGGLVQSGGSLRLSCAASGFTFSRYEMNWVRQAPGKGLEWVAYISNTGTTRDYSDSVKGRFTISRDNAKNSLYLQMSSLRVEDTAVYYCVREKFSGTSDWFDPWGQGTLVTVSS
VL: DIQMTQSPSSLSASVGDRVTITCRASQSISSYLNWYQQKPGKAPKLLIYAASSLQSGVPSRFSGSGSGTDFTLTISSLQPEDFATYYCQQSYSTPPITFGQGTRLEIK
notes: Variable domains only

Reference: patent publication US20190185562A1 (Regeneron, published 2019)
